Experimental data as given in patent US11111484B2, “Streptococcus bacteriophage lysins for detection and treatment of gram positive bacteria” (priority 2011, dated 2021).
Values joined by “and” are separate entries in the source; they are usually repeats but may differ in a detail not shown here. Identical values can stand only once.

How the values were obtained:
S. salivarius 9222 = test: ΔPlySs1 OD600 lysis, 1 hr, optimal buffering conditions; assay type: cell-based
S. pneumoniae R36 = test: as above; assay type: cell-based, Streptococcus pneumoniae
S. aureus RN4220 = test: as above; assay type: cell-based, Staphylococcus aureus
S. suis strain 7711 = test: ΔPlySs1 biochemical characterization, turbidity reduction (OD600); assay type: cell-based, Streptococcus suis; details: for activity after 6 hours at 40° C. / activity after 6 hours at 45° C.: 6-hr incubation; for pH of maximal activity in bis-tris-propane: BTP 40 mM, pH 7.0-9.7, 110 μg/ml; for temperature at which activity completely abolished: held 30 min at 35° C.-60° C.; for effect of DTT on activity: pre-incubated 1 hr with 5 mM DTT
Experimental: The optimal biochemical conditions for PlySs1 were determined against live cells of the encoding S. suis strain (7711). For these experiments, activity was gauged through the degree of turbidity reduction (OD600) of an aqueous bacterial suspension following the addition of lysin. The pH-dependence of the enzyme was first addressed using two buffer sets with adjacent pH ranges, citrate/phosphate: 4.6-8.0; and bis-tris-propane (BTP): 7.0-9.7. An extended spectrum of lysis was observed, from 5.4-9.4 (FIG. 11A). In BTP, lysis was maximal from 8.2-9.0; at commensurate pH-values, however, the magnitude of the OD-drop was slightly more pronounced in citrate/phosphate (FIG. 11B).
The thermal stability of PlySs1 was examined by incubating the enzyme at various elevated temperatures prior to use (the OD-drop experiment itself was always conducted at 37° C.). When held at 35° C.-60° C. for 30 min, lysin activity was virtually unaffected until 50° C., at which point it was completely abolished (FIG. 14A). […] The latter corresponds to typical porcine body temperature.

MRSA [1] = test: rat MRSA wound infection with sterile sand (foreign body); assay type: in vivo, rats; details: for CFU/Gram, AVG: 10 mg PlySs2 single dose, 15 rats, after 10 days, not true Avg since < values
Experimental: Animal experiments were initiated by determining the infectious dose of MRSA necessary to cause infection in the rat wound. […] However, when we added a foreign body ([…]), infection occurred at <10^8 CFUs. Specifically, incisions were made in the backs of the rats (5-6 cm in length) and a 2-3 mm incision was made in the underlying tissue. To this was added 100 mg sterile sand and 50 μl of MRSA. The wounds were stapled closed and the animals followed for 10 days and the wounds opened and examined for gross changes and tissue samples taken for bacteriological examination.
Samples (weighed and homogenized tissue) taken from the opened wound yielded about 10^7 CFU MRSA/gram of tissue. This model was very reproducible yielding the same results in at least 10 animals.
We used the model as described above to treat with PlySs2 lysin to determine the effects of the treatment. In this case, half of the animals receiving the MRSA and sand were treated with 10 mg PlySs2 in 50 ul of phosphate buffer (PB), control animals received PB instead 10 minutes after MRSA dosing. The animals were followed for 10 days. At this time the animals were analyzed for gross changes and microbiology. […] This is in sharp contrast to animals treated with a single dose of PlySS2.

MRSA [2] = test: MIC studies; assay type: cell-based, Staphylococcus aureus
Experimental: The Wiegand, et al. protocol to determine minimum inhibitory concentrations was followed with adjustments detailed below. A final suspension of ≈5×10^5 cells/ml in MHB (or BHI for S. pyogenes) resulted after Sterile-filtered lysin or vehicle was added at the appropriate concentration. These tests were distributed within a 96-well microtiter plate. The MIC's were determined, in this experiment, by detection of pellet formation in the bottom of rounded polysterene plate wells. They were also corroborated colorimetrically with alamarBlue®.

S. suis strain 7997 = test: PlySs2 OD600 lytic activity test, various concentrations; assay type: cell-based, Streptococcus suis
[3] = test system: cultures from the oral cavities of two rats; test: rat oral cavity microbiota study, drops on culture lawns; assay type: cell-based, rat oral bacteria; details: 10 μL PlySs2 drops on BHI agar lawns; the one culture confirmed as S. aureus

B1: ΔPlySs1: truncated PlySs1 lysin, SEQ ID NO:2, N-terminal 254 amino acids: only N-terminal enzymatic and central binding domains (protein, listed as Streptococcus suis)
chain: MTINLETSIRWMSDRVGKVSYSMDYRNGPNSYDCSSAVYYALMAGGAISAGWAVNTEYMHDWLIRNGYVLVAENKPFNAQRHDVCILGKRGYSSGAGGHVVIFVDNVNVIHCNYARNGISIDNYNQVHRGMYYYLYRPANQPSISNKSLDQLVKETLAGVHGNGDTRKASLGSQYEAVMAVINGKASASEKSDEELAREVLAGKHGAGEDRKRSLGPRYEPVQAKVNELLKAKEKPSETAKNEPQTVQFKEDGDL
lysis value after 1 hr (treated/untreated OD600 ratio) (S. salivarius 9222; 6.5 μg/ml): 0.80
lysis value after 1 hr (treated/untreated OD600 ratio) (S. salivarius 9222; 13 μg/ml): 0.76
lysis value after 1 hr (treated/untreated OD600 ratio) (S. salivarius 9222; 30 μg/ml): 0.56
lysis value after 1 hr (treated/untreated OD600 ratio) (S. salivarius 9222; 65 μg/ml): 0.53
lysis value after 1 hr (treated/untreated OD600 ratio) (S. salivarius 9222; 130 μg/ml): 0.37
lysis value after 1 hr (treated/untreated OD600 ratio) (S. pneumoniae R36; 6.5 μg/ml): 0.25
lysis value after 1 hr (treated/untreated OD600 ratio) (S. pneumoniae R36; 13 μg/ml): 0.22
lysis value after 1 hr (treated/untreated OD600 ratio) (S. pneumoniae R36; 30 μg/ml): 0.14
lysis value after 1 hr (treated/untreated OD600 ratio) (S. pneumoniae R36; 65 μg/ml): 0.16
lysis value after 1 hr (treated/untreated OD600 ratio) (S. pneumoniae R36; 130 μg/ml): 0.12
lysis value after 1 hr (treated/untreated OD600 ratio) (S. aureus RN4220; 6.5 μg/ml): 0.89
lysis value after 1 hr (treated/untreated OD600 ratio) (S. aureus RN4220; 13 μg/ml): 0.78
lysis value after 1 hr (treated/untreated OD600 ratio) (S. aureus RN4220; 30 μg/ml): 0.55
lysis value after 1 hr (treated/untreated OD600 ratio) (S. aureus RN4220; 65 μg/ml): 0.31
lysis value after 1 hr (treated/untreated OD600 ratio) (S. aureus RN4220; 130 μg/ml): 0.10
effect of NaCl on bacteriolysis (S. suis strain 7711; 0-1000 mM NaCl): bacteriolysis varied little
activity after 6 hours at 40° C. (S. suis strain 7711): maintained essentially native activity
activity after 6 hours at 40° C. (S. suis strain 7711; listed as PlySs1): unaffected
activity after 6 hours at 45° C. (S. suis strain 7711): some loss of activity, though not complete
activity after 6 hours at 45° C. (S. suis strain 7711; listed as PlySs1): partial decrease in activity
pH of maximal activity in bis-tris-propane (S. suis strain 7711): 9.0
pH of maximal activity in bis-tris-propane (S. suis strain 7711; listed as PlySs1): 8.2-9.0
pH spectrum of lysis (S. suis strain 7711; citrate/phosphate 4.6-8.0 and BTP 7.0-9.7): 5.4-9.4
effect of EDTA on activity (S. suis strain 7711; excess EDTA): did not negatively impact activity
temperature at which activity completely abolished (S. suis strain 7711): complete loss of activity was observed between the 45 °C and 50 °C samples
temperature at which activity completely abolished (S. suis strain 7711; listed as PlySs1): 50 °C
effect of DTT on activity (S. suis strain 7711): activity was unchanged
effect of DTT on activity (S. suis strain 7711; listed as PlySs1): did not negatively impact activity

B2: PlySs2: Streptococcus suis prophage lysin, SEQ ID NO:3; N-terminal CHAP domain and C-terminal SH3-type 5 domain (protein, listed as Streptococcus suis)
chain: MTTVNEALNNVRAQVGSGVSVGNGECYALASWYERMISPDATVGLGAGVGWVSGAIGDTISAKNIGSSYNWQANGWTVSTSGPFKAGQIVTLGATPGNPYGHVVIVEAVDGDRLTILEQNYGGKRYPVRNYYSAASYRQQVVHYITPPGTVAQSAPNLAGSRSYRETGTMTVTVDALNVRRAPNTSGEIVAVYKRGESFDYDTVIIDVNGYVWVSYIGGSGKRNYVATGATKDGKRFGNAWGTFK
CFU/Gram, individual rats P1-P15 (MRSA [1]; 10 mg PlySs2 single dose 10 minutes after MRSA, wound tissue after 10 days): <5.00E+01 CFU/Gram (10×) and 9.10E+01 CFU/Gram and 5.00E+01 CFU/Gram and 8.40E+02 CFU/Gram and 3.20E+02 CFU/Gram (2×)
CFU/Gram, AVG (MRSA [1]): 1.41×10^2 CFU/Gram
CFU/Gram, AVG (MRSA [1]; listed as PLYSS2): 1.41E+02 CFU/Gram
CFU Reduction vs Control (MRSA [1]; AVG buffer / AVG PlySs2): CFU Reduction vs Control 3.02E+04
reduction of MRSA (MRSA [1]; PlySs2 vs buffer, wound tissue after 10 days): > 4 logs
gross changes of wounds (MRSA [1]; single dose of PlySS2, 10 days): did not exhibit pus or necrosis and exhibited better healing
minimum inhibitory concentration (MIC) (MRSA [2]): 16 µg/mL
concentration giving acute lytic activity (S. suis strain 7997): ≥ 8 µg/mL
clearing zone around drops on lawns of 6 rat oral cultures [3]: only appeared on one culture
